Measurements taken from article PMC11574045, “A cofactor-induced repressive type of transcription factor condensation can be induced by synthetic peptides to suppress tumorigenesis” (The EMBO Journal, 2024).

B1: HNF4G (protein, UniProt Q14541 1-408, looked up)
Hepatocyte nuclear factor …: MNTTDNGVNCLCAICGDRATGKHYGASSCDGCKGFFRRSIRKSHVYSCRFSRQCVVDKDKRNQCRYCRLRKCFRAGMKKEAVQNERDRISTRRSTFDGSNIPSINTLAQAEVRSRQISVSSPGSSTDINVKKIASIGDVCESMKQQLLVLVEWAKYIPAFCELPLDDQVALLRAHAGEHLLLGATKRSMMYKDILLLGNNYVIHRNSCEVEISRVANRVLDELVRPFQEIQIDDNEYACLKAIVFFDPDAKGLSDPVKIKNMRFQVQIGLEDYINDRQYDSRGRFGELLLLLPTLQSITWQMIEQIQFVKLFGMVKIDNLLQEMLLGGASNDGSHLHHPMHPHLSQDPLTGQTILLGPMSTLVHADQISTPETPLPSPPQGSGQEQYKIAANQASVISHQHLSKQKQL
B2: HMG20B (protein, UniProt Q9P0W2 1-317, looked up)
SWI/SNF-related …: MSHGPKQPGAAAAPAGGKAPGQHGGFVVTVKQERGEGPRAGEKGSHEEEPVKKRGWPKGKKRKKILPNGPKAPVTGYVRFLNERREQIRTRHPDLPFPEITKMLGAEWSKLQPTEKQRYLDEAEREKQQYMKELRAYQQSEAYKMCTEKIQEKKIKKEDSSSGLMNTLLNGHKGGDCDGFSTFDVPIFTEEFLDQNKAREAELRRLRKMNVAFEEQNAVLQRHTQSMSSARERLEQELALEERRTLALQQQLQAVRQALTASFASLPVPGTGETPTLGTLDFYMARLHGAIERDPAQHEKLIVRIKEILAQVASEHL
B3: HOXC13 (protein, UniProt P31276 1-330, looked up)
Homeobox protein Hox-C13: MTTSLLLHPRWPESLMYVYEDSAAESGIGGGGGGGGGGTGGAGGGCSGASPGKAPSMDGLGSSCPASHCRDLLPHPVLGRPPAPLGAPQGAVYTDIPAPEAARQCAPPPAPPTSSSATLGYGYPFGGSYYGCRLSHNVNLQQKPCAYHPGDKYPEPSGALPGDDLSSRAKEFAFYPSFASSYQAMPGYLDVSVVPGISGHPEPRHDALIPVEGYQHWALSNGWDSQVYCSKEQSQSAHLWKSPFPDVVPLQPEVSSYRRGRKKRVPYTKVQLKELEKEYAASKFITKEKRRRISATTNLSERQVTIWFQNRRVKEKKVVSKSKAPHLHST
B4: HMG20A (protein, UniProt Q9NP66 1-347, looked up)
High mobility group protein …: MENLMTSSTLPPLFADEDGSKESNDLATTGLNHPEVPYSSGATSSTNNPEFVEDLSQGQLLQSESSNAAEGNEQRHEDEQRSKRGGWSKGRKRKKPLRDSNAPKSPLTGYVRFMNERREQLRAKRPEVPFPEITRMLGNEWSKLPPEEKQRYLDEADRDKERYMKELEQYQKTEAYKVFSRKTQDRQKGKSHRQDAARQATHDHEKETEVKERSVFDIPIFTEEFLNHSKAREAELRQLRKSNMEFEERNAALQKHVESMRTAVEKLEVDVIQERSRNTVLQQHLETLRQVLTSSFASMPLPGSGETPTVDTIDSYMNRLHSIILANPQDNENFIATVREVVNRLDR
B5: HMG1 (protein, UniProt P09429 1-215, looked up)
High mobility group protein B1: MGKGDPKKPRGKMSSYAFFVQTCREEHKKKHPDASVNFSEFSKKCSERWKTMSAKEKGKFEDMAKADKARYEREMKTYIPPKGETKKKFKDPNAPKRPPSAFFLFCSEYRPKIKGEHPGLSIGDVAKKLGEMWNNTAADDKQPYEKKAAKLKEKYEKDIAAYRAKGKPDAAKKGVVKAEKSKKKKEEEEDEEDEEDEEEEEDEEDEDEEEDDDDE
B6: HMBOX1 (protein, UniProt Q6NT76 1-420, looked up)
Homeobox-containing protein 1: MLSSFPVVLLETMSHYTDEPRFTIEQIDLLQRLRRTGMTKHEILHALETLDRLDQEHSDKFGRRSSYGGSSYGNSTNNVPASSSTATASTQTQHSGMSPSPSNSYDTSPQPCTTNQNGRENNERLSTSNGKMSPTRYHANSMGQRSYSFEASEEDLDVDDKVEELMRRDSSVIKEEIKAFLANRRISQAVVAQVTGISQSRISHWLLQQGSDLSEQKKRAFYRWYQLEKTNPGATLSMRPAPIPIEDPEWRQTPPPVSATSGTFRLRRGSRFTWRKECLAVMESYFNENQYPDEAKREEIANACNAVIQKPGKKLSDLERVTSLKVYNWFANRRKEIKRRANIEAAILESHGIDVQSPGGHSNSDDVDGNDYSEQDDSTSHSDHQDPISLAVEMAAVNHTILALARQGANEIKTEALDDD
B7: HLX (protein, UniProt Q14774 1-488, looked up)
H2.0-like homeobox protein: MFAAGLAPFYASNFSLWSAAYCSSAGPGGCSFPLDPAAVKKPSFCIADILHAGVGDLGAAPEGLAGASAAALTAHLGSVHPHASFQAAARSPLRPTPVVAPSEVPAGFPQRLSPLSAAYHHHHPQQQQQQQQPQQQQPPPPPRAGALQPPASGTRVVPNPHHSGSAPAPSSKDLKFGIDRILSAEFDPKVKEGNTLRDLTSLLTGGRPAGVHLSGLQPSAGQFFASLDPINEASAILSPLNSNPRNSVQHQFQDTFPGPYAVLTKDTMPQTYKRKRSWSRAVFSNLQRKGLEKRFEIQKYVTKPDRKQLAAMLGLTDAQVKVWFQNRRMKWRHSKEAQAQKDKDKEAGEKPSGGAPAADGEQDERSPSRSEGEAESESSDSESLDMAPSDTERTEGSERSLHQTTVIKAPVTGALITASSAGSGGSSGGGGNSFSFSSASSLSSSSTSAGCASSLGGGGASELLPATQPTASSAPKSPEPAQGALGCL
B8: ARID4A (protein, UniProt P29374 1-1257, looked up)
AT-rich interactive …: MKAADEPAYLTVGTDVSAKYRGAFCEAKIKTVKRLVKVKVLLKQDNTTQLVQDDQVKGPLRVGAIVETRTSDGSFQEAIISKLTDASWYTVVFDDGDERTLRRTSLCLKGERHFAESETLDQLPLTNPEHFGTPVIAKKTNRGRRSSLPVTEDEKEEESSEEEDEDKRRLNDELLGKVVSVVSATERTEWYPALVISPSCNDDITVKKDQCLVRSFIDSKFYSIARKDIKEVDILNLPESELSTKPGLQKASIFLKTRVVPDNWKMDISEILESSSSDDEDGPAEENDEEKEKEAKKTEEEVPEEELDPEERDNFLQQLYKFMEDRGTPINKPPVLGYKDLNLFKLFRLVYHQGGCDNIDSGAVWKQIYMDLGIPILNSAASYNVKTAYRKYLYGFEEYCRSANIQFRTVHHHEPKVKEEKKDLEESMEEALKLDQEMPLTEVKSEPEENIDSNSESEREEIELKSPRGRRRIARDVNSIKKEIEEEKTEDKLKDNDTENKDVDDDYETAEKKENELLLGRKNTPKQKEKKIKKQEDSDKDSDEEEEKSQEREETESKCDSEGEEDEEDMEPCLTGTKVKVKYGRGKTQKIYEASIKSTEIDDGEVLYLVHYYGWNVRYDEWVKADRIIWPLDKGGPKKKQKKKAKNKEDSEKDEKRDEERQKSKRGRPPLKSTLSSNMPYGLSKTANSEGKSDSCSSDSETEDALEKNLINEELSLKDELEKNENLNDDKLDEENPKISAHILKENDRTQMQPLETLKLEVGENEQIVQIFGNKMEKTEEVKKEAEKSPKGKGRRSKTKDLSLEIIKISSFGQNEAGSEPHIEAHSLELSSLDNKNFSSATEDEIDQCVKEKKLKRKILGQSSPEKKIRIENGMEMTNTVSQERTSDCIGSEGMKNLNFEQHFERENEGMPSLIAESNQCIQQLTSERFDSPAEETVNIPLKEDEDAMPLIGPETLVCHEVDLDDLDEKDKTSIEDVAVESSESNSLVSIPPALPPVVQHNFSVASPLTLSQDESRSVKSESDITIEVDSIAEESQEGLCERESANGFETNVASGTCSIIVQERESREKGQKRPSDGNSGLMAKKQKRTPKRTSAAAKNEKNGTGQSSDSEDLPVLDNSSKCTPVKHLNVSKPQKLARSPARISPHIKDGEKDKHREKHPNSSPRTYKWSFQLNELDNMNSTERISFLQEKLQEIRKYYMSLKSEVATIDRRRKRLKKKDREVSHAGASMSSASSDTGMSPSSSSPPQNVLAVECR
B9: ARID5B (protein, UniProt Q14865 1-1188, looked up)
AT-rich interactive …: MEPNSLQWVGSPCGLHGPYIFYKAFQFHLEGKPRILSLGDFFFVRCTPKDPICIAELQLLWEERTSRQLLSSSKLYFLPEDTPQGRNSDHGEDEVIAVSEKVIVKLEDLVKWVHSDFSKWRCGFHAGPVKTEALGRNGQKEALLKYRQSTLNSGLNFKDVLKEKADLGEDEEETNVIVLSYPQYCRYRSMLKRIQDKPSSILTDQFALALGGIAVVSRNPQILYCRDTFDHPTLIENESICDEFAPNLKGRPRKKKPCPQRRDSFSGVKDSNNNSDGKAVAKVKCEARSALTKPKNNHNCKKVSNEEKPKVAIGEECRADEQAFLVALYKYMKERKTPIERIPYLGFKQINLWTMFQAAQKLGGYETITARRQWKHIYDELGGNPGSTSAATCTRRHYERLILPYERFIKGEEDKPLPPIKPRKQENSSQENENKTKVSGTKRIKHEIPKSKKEKENAPKPQDAAEVSSEQEKEQETLISQKSIPEPLPAADMKKKIEGYQEFSAKPLASRVDPEKDNETDQGSNSEKVAEEAGEKGPTPPLPSAPLAPEKDSALVPGASKQPLTSPSALVDSKQESKLCCFTESPESEPQEASFPSFPTTQPPLANQNETEDDKLPAMADYIANCTVKVDQLGSDDIHNALKQTPKVLVVQSFDMFKDKDLTGPMNENHGLNYTPLLYSRGNPGIMSPLAKKKLLSQVSGASLSSSYPYGSPPPLISKKKLIARDDLCSSLSQTHHGQSTDHMAVSRPSVIQHVQSFRSKPSEERKTINDIFKHEKLSRSDPHRCSFSKHHLNPLADSYVLKQEIQEGKDKLLEKRALPHSHMPSFLADFYSSPHLHSLYRHTEHHLHNEQTSKYPSRDMYRESENSSFPSHRHQEKLHVNYLTSLHLQDKKSAAAEAPTDDQPTDLSLPKNPHKPTGKVLGLAHSTTGPQESKGISQFQVLGSQSRDCHPKACRVSPMTMSGPKKYPESLSRSGKPHHVRLENFRKMEGMVHPILHRKMSPQNIGAARPIKRSLEDLDLVIAGKKARAVSPLDPSKEVSGKEKASEQESEGSKAAHGGHSGGGSEGHKLPLSSPIFPGLYSGSLCNSGLNSRLPAGYSHSLQYLKNQTVLSPLMQPLAFHSLVMQRGIFTSPTNSQQLYRHLAAATPVGSSYGDLLHNSIYPLAAINPQAAFPSSQLSSVHPSTKL
B10: HMX2 (protein, UniProt A2RU54 1-273, looked up)
Homeobox protein HMX2: MGSKEDAGKGCPAAGGVSSFTIQSILGGGPSEAPREPVGWPARKRSLSVSSEEEEPDDGWKAPACFCPDQHGPKEQGPKHHPPIPFPCLGTPKGSGGSGPGGLERTPFLSPSHSDFKEEKERLLPAGSPSPGSERPRDGGAERQAGAAKKKTRTVFSRSQVYQLESTFDMKRYLSSSERACLASSLQLTETQVKTWFQNRRNKWKRQLSAELEAANMAHASAQTLVSMPLVFRDSSLLRVPVPRSLAFPAPLYYPGSNLSALPLYNLYNKLDY
B11: ARID3C (protein, UniProt A6NKF2 1-412, looked up)
AT-rich interactive …: MEALQKQQAARLAQGVGPLAPACPLLPPQPPLPDHRTLQAPEGALGNVGAEEEEDAEEDEEKREEAGAEEEAAEESRPGAQGPSSPSSQPPGLHPHEWTYEEQFKQLYELDADPKRKEFLDDLFSFMQKRGTPVNRVPIMAKQVLDLYALFRLVTAKGGLVEVINRKVWREVTRGLSLPTTITSAAFTLRTQYMKYLYPYECETRALSSPGELQAAIDSNRREGRRQAYTATPLFGLAGPPPRGAQDPALGPGPAPPATQSSPGPAQGSTSGLPAHACAQLSPSPIKKEESGIPNPCLALPVGLALGPTREKLAPEEPPEKRAVLMGPMDPPRPCMPPSFLPRGKVPLREERLDGPLNLAGSGISSINMALEINGVVYTGVLFARRQPVPASQGPTNPAPPPSTGPPSSILP

Test system: HEK293FT cells transfected with TF library
Test: Screening of TF condensates based on fluorescent puncta
Assay type: cell-based
Settings: Figure 1B numerical data; TF library screen, one value per transcriptional factor
Summary of the method: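 Condensate formation is scored as Alexa 488-labelled puncta after Flag- or GAL4-tag immunostaining of fixed HEK293FT cells expressing individual TFs, with a 12 h glucose-free or glucose-containing culture preceding fixation.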

Row | Molecule | Z score of condensed fraction
1 | B1 | 0.7637
2 | B2 | -0.2795
3 | B3 | -0.9976
4 | B4 | -0.5061
5 | B5 | 1.213
6 | B6 | -0.9564
7 | B7 | 2.079
8 | B8 | 0.8979
9 | B9 | -1.099
10 | B10 | 0.8931
11 | B11 | 0.4617
